In the domain aggregation screens of Martell et al. (2025):

Test: soluble fraction after stress (log2 fold change); higher = more stays soluble; pooled small domains, quantitative proteomics
Settings: stress: 75 degC
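Note: 20 min heating vs room temperature control held 20 min.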

Going from “HMKMQIGEIIRKYRKSNHMTQEEMAERLGVSAPAVNKWENGNSMPDIMLLAPITRLLGISLDELLSFE” to “HMKMSVEEVNLSPRTTNALINNDIKTMKDLVALTDTELRDLKGFGSKAYEEVKEKLSELGLSTQ”, the “soluble fraction (log2)” value rises from -2.26 to 0.503.

Going from “HMKMSVKNEIISLLEKNRDTSISGQVIADSLNVTRAAVWKAIKVLKEEGYNIDGTPNKGYILLGNN” to “HMKMTFGENLHKLRKIYRLSQEDVASAINLKRSDIAAVEKGDRVLNDEELDKLADFIGIDIVDLL”, the “soluble fraction (log2)” value rises from -1.22 to -0.479.

Compared with “HMKMVSTPTGTRISLTQVKEFISNASFDDMKEILLEVLAWFKAHNLGNPFNYNRAFEFIVAH”, “HMKNELNSKLIISIKEALPPQIKVATYLMDLLSLGREAVYRRIRGDVSFDLEELSIISKALNISIDDVL” is lower in “soluble fraction (log2)” value: -0.256 for the first, -3.9 for the second.

First: HMKNESLMLPRDIDYSRVHGLSNEAIQKLQDALPQSLGQASRIEGITPATLSLLLLYLKKNNKRI
Second: HMKNHSTFKSVLSNIEFPINERISGHAIQNPILGLIKADHPNFSSDQYIAISELNFYREKYISNYLLTEI
The “soluble fraction (log2)” value of the first is higher: -0.00281 for the first, -3.67 for the second.

Going from “HMKNKIYGTIVSSTSGEETVYKVFQVDSSKDITYLFRPDMIRLAHENNQALEFNEETGRGKRIEMSDLPK” to “HMKNLHLVPNVVGMSAKEAKNTLKSFNIKYKPIYGSSNKYDENYIFNQNPRKGKTIKEQEVVTIYISRGAD”, the “soluble fraction (log2)” value falls from -0.106 to -1.42.

Compared with “HMKNNNIIFSEFLKEVENGRVVEVRIQGNNIQGIMSNGKEFTTYSPNYPNLIEKLTETGVSISAAPL”, “HMKNPLIIGMTKDKIIELIGMPDNIKFLDSSLSKSEVWNYDKFGKKLYIKDEKLYQIENIEE” is lower in “soluble fraction (log2)” value: 0.434 for the first, 0.0985 for the second.

“HMKNSAAKETILAFLKKNGGELFTQMQIIEKFQKMIPAPVLRITLEELLNKGQVEITSKGKYYLSVKGS” and “HMKNSKIVIQKRHNHILELLKQNRTMDVTVLAERLGVTGATIRRDLKKLEQEGTIVRSFGKVSFVG” are within 0.2 log units of each other in “soluble fraction (log2)” value: -2.08 for the first, -2.18 for the second.

Going from “HMKNTVGEYRKLKSTTILYSNSDLTGTKYTYLPNTTVKILKNISSTVDYVYIKATNRYAYINIYAYT” to “HMKNVENIILEQLKKNIYDDLNNASFEEIILIDAEKSIYKGTIKANYIEYNFKINLSTGEILKWKLK”, the “soluble fraction (log2)” value rises from -2.69 to -1.95.

Going from “HMKNVSVKMILSPESLGEIQVDLVFSKGKDLEIMLRPETAEVAKLIQSNSASLREQLSLEHKGPLSLNVS” to “HMKNYALHEPMMDRIAKVNALYDAGHTIKYMTARGAVSMVDYYDLTKSQLDSWGAKYHELSVGK”, the “soluble fraction (log2)” value rises from -0.32 to 0.12.

“HMKNYYEVLGVPRDAAAPDIKRAFRKLAKQFHPDHNPGDAKAEERFKLVSQAYDVLGDEEKRKLYDQFGE” and “HMKNYYSILGVTPDSSEAEIKSAYRRLARKFHPDVNPDGASRFKDISEAYETLSDAKKRFQYDTINGF” are within 0.2 log units of each other in “soluble fraction (log2)” value: 0.0891 for the first, -0.0709 for the second.

First: HMKPATSITFIPSERPDLVEQLSKITFDKKDSLYENYINLNWLTFEAISVYMREGDIIGFST
Second: HMKPDAAKREQLIDIALRLFSQQGIARTSLNAIAREAGVTPAMLHYYFNSREQLLDVMIEERFL
The “soluble fraction (log2)” value of the first is higher: -0.148 for the first, -3 for the second.

First: HMKPDIETQLKKYRYKVSVSKKIKPYMVFSDKTLSELLTKSPTNLKELEDINGFGPVKVQEYGAAILEILK
Second: HMKPDSEFTSQDLWQNDLAGTGSAAYRRDKMGALLGIGYGNAKRFLERLNSYGVTRSEFDEALAQLGE
The “soluble fraction (log2)” value of the first is lower: -1.19 for the first, -0.188 for the second.

“HMKPEDIALLEEIRDLLKEKKSVIVNLEYVNKDVARRIVDFISGGVFALNGHIQKVSNSIFLVAPMN” and “HMKPMNNNDILRRLRYTFDLSDDKMMETFALGGYEANRSEISDWLKKDDHPEQKSLYDKSLSHFLNGFIV” are within 0.2 log units of each other in “soluble fraction (log2)” value: -0.00621 for the first, -0.178 for the second.

“HMKPPVQVIGKAVVTASSLNVRTGPGTGHGIITSLPRNTEVELLEQQGEWYKIRRGSTVGYVHGGYLKIN” and “HMKPRISMITLGVKDLNKSIEFYGGGLGFPRKKTEPEIAIFKLNGSWLSLYNRGLLAEDANVS” are within 0.2 log units of each other in “soluble fraction (log2)” value: -0.311 for the first, -0.184 for the second.

Going from “HMKPSKYTLAIDSIPVHVTRKQMKSIRLRVTPLGEVRVSAPYGVKDSEIVEMVRSRKLWIESQQRA” to “HMKPSTETLYATARINVRAAADTSAEKLGSIEMGEAVVRTGTDGDWSIIEYNGSTGYVKSEYLTANAGDAT”, the “soluble fraction (log2)” value rises from -2.34 to 0.232.

Going from “HMKPSVEIKVNGGTGAGVVKKGGSITVTANEPAEGKVFTGWQDESGKIVSTQKEYTFTVAEGTTLTAVYED” to “HMKPTGWVRGDMGVVDKGQLSITQGTVNVRSGPGLSYEILDQVRRGDRFPVIKSQSGWHNISM”, the “soluble fraction (log2)” value falls from no less than 1.04 to 0.249.

First: HMKPTSLLGIERYLGSGLIRGVGPSTAKQIVEHFGMETMEVLTEHPERLQEVHGMGRKRWRQIAESFQEQQ
Second: HMKPVTVINFVGMTEEKAMTEAEKLGLVVGASSSEYSDEPAGTVIRQSISVSTEAKTGDNIYFTVSKGPE
The “soluble fraction (log2)” value of the first is lower: -0.869 for the first, 0.677 for the second.

Going from “HMKQETLNEIGTKIRKLRESKNLSIQEFADKLEMEYNNVIRIEKGRTNFTIGTLVKIANSLEVNLKDI” to “HMKQFVVQYYGIDGEVINSVYKNGMSDLTSYEPEKIDGKNFKGWSLSEDSKKVIDENYRINSDVNLYAVYT”, the “soluble fraction (log2)” value rises from -2.41 to 0.758.

First: HMKQHPTIDLQIGQKLHYKEDVFEVTRFAKDKNGQDMVILKDPSIGSGIEIPWYRSKLEEIIESGQYKIT
Second: HMKQIEEIIARYTNENTPLMMILSDVQREYGYIPLDVQELISEKTGIPVAEIYGVVTFYSFFSL
The “soluble fraction (log2)” value of the first is higher: 0.361 for the first, -0.676 for the second.
